From article PMC3009601, “Structural Basis for Apoptosis Inhibition by Epstein-Barr Virus BHRF1” (PLoS Pathogens, 2010)

Legend:
[1] = biological target: T1, BHRF1 (recombinant; BHRF1ΔC31) (Epstein-barr virus strain ag876, UniProt P0C6Z1); experiment: biosensor assay; type: binding
T1 construct: C-terminally truncated (last 31 residues removed, ΔC31), His-tagged, E. coli BL21(DE3) pLysS; the ABT-737 sentence says only 'recombinant BHRF1'

[2] = biological target: BHRF1ΔC31 (Epstein-Barr virus) (UniProt P03182); experiment: ITC; VP-ITC (MicroCal), recombinant BHRF1ΔC31 with BH3 domain peptides; Kd values are the means of 3 experiments ± SD
[3] = biological target: T2, BHRF1ΔC31 (Epstein-Barr virus, UniProt P03182); experiment: as above; details: both partners purified
T2 construct: Epstein-Barr virus BHRF1 (viral Bcl-2 homolog) lacking the C-terminal 31 residues (ΔC31); electron density seen for residues 2-158 in the Bim complex; Cloned into pET DUET with BamHI and EcoRI; also called recombinant C-terminally truncated form of BHRF1; recombinant BHRF1; source: E. coli BL21 DE3 pLysS, purified (nickel Hi-Trap chelating column, Superdex 200 gel filtration)
T2 sequence: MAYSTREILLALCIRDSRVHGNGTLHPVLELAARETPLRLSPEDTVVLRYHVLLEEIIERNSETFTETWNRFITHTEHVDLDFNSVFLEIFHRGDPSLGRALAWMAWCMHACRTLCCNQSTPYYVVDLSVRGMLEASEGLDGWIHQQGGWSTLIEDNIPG

[4] = biological target: T3, BHRF1ΔC31 (Epstein-Barr virus, UniProt P03182); experiment: ITC
T3 chain: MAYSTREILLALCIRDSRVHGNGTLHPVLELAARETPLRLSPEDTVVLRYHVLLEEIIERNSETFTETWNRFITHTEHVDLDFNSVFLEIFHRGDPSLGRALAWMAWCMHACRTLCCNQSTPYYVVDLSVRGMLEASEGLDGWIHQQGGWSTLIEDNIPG

Molecule | Kd [2] [nM] | Kd [3] [nM] | other results
CN(C)CC[C@H](CSc1ccccc1)Nc1ccc(S(=O)(=O)NC(=O)c2ccc(N3CCN(Cc4ccccc4-c4ccc(Cl)cc4)CC3)cc2)cc1[N+](=O)[O-] [ABT-737] | – | – | IC50 [1]: > 20000 nM
human Bak BH3 26-mer peptide | 150 | – | –
human Bim BH3 26-mer peptide | 18 | – | –
human Puma BH3 26-mer peptide | 70 | – | –
SESQEDIIRNIARHLAQVGDSMDRSIPPGLVNGL [human Bid BH3 34-mer peptide] | – | 110 | –
PQDASTKKLSECLKRIGDELDSNMELQR [human Bax BH3 28-mer peptide] | – | > 1000 | Kd [4]: 1400 nM
